Key:
Experiment in all cases: cell-based or functional assay
[1] = target: HIV-1 Env pseudovirus Q259.d2.17 (HIV-1)
[2] = target: HIV-1 Env pseudovirus 1394C9G1(Rev-) (HIV-1)
[3] = target: HIV-1 Env pseudovirus HIV-16055-2.3 (HIV-1)
[4] = target: HIV-1 Env pseudovirus 1056_10_TA11_1826 (HIV-1)
[5] = target: HIV-1 Env pseudovirus ZM135M.PL10a (HIV-1)
[6] = target: HIV-1 Env pseudovirus Q461.e2 (HIV-1)
[7] = target: HIV-1 Env pseudovirus Ce1172_H1 (HIV-1)
[8] = target: HIV-1 Env pseudovirus 6535.3 (HIV-1)
[9] = target: HIV-1 Env pseudovirus CAP45.2.00.G3 (HIV-1)
[10] = target: HIV-1 Env pseudovirus Ce704809221_1B3 (HIV-1)
[11] = target: HIV-1 Env of pseudovirus 3415.v1.c1 (HIV-1)
[12] = target: HIV-1 Env of pseudovirus C2101.c01 (HIV-1)
[13] = target: HIV-1 Env of pseudovirus Ce0682_E4 (HIV-1)
[14] = target: HIV-1 Env of pseudovirus BF1266.431a (HIV-1)
[15] = target: HIV-1 Env of pseudovirus REJO4541.67 (HIV-1)
[16] = target: HIV-1 Env of pseudovirus 1054_07_TC4_1499 (HIV-1)
[17] = target: Env of HIV-1 pseudovirus CNE20 (HIV-1)
[18] = target: Env of HIV-1 pseudovirus Q769.d22 (HIV-1)
[19] = target: Env of HIV-1 pseudovirus CNE58 (HIV-1)
[20] = target: Env of HIV-1 pseudovirus 0260.v5.c36 (HIV-1)
[21] = target: Env of HIV-1 pseudovirus Du422.1 (HIV-1)
[22] = target: Env of HIV-1 pseudovirus SC05_8C11_2344 (HIV-1)
[23] = target: Env of HIV-1 pseudovirus HIV-001428-2.42 (HIV-1)
[24] = target: Env of HIV-1 pseudovirus Q259.d2.17 (HIV-1)
[25] = target: Env of HIV-1 pseudovirus 6535.3 (HIV-1)
[26] = target: Env of HIV-1 pseudovirus CNE30 (HIV-1)
[27] = target: Env of HIV-1 pseudovirus Ce2010_F5 (HIV-1)
[28] = target: Env of HIV-1 pseudovirus 249M B10 (HIV-1)
[29] = target: Env of HIV-1 pseudovirus ZM214M.PL15 (HIV-1)

N49P18.1 (antibody)
IC50 [1]: > 50 µg/mL | IC80 [1]: > 50 µg/mL | MPI [1]: 37 | IC50 [2]: > 50 µg/mL | IC80 [2]: > 50 µg/mL | MPI [2]: 17 | IC50 [3]: 8.04 µg/mL | IC80 [3]: 22.6 µg/mL | MPI [3]: 97 | IC50 [4]: 30.5 µg/mL | IC80 [4]: > 50 µg/mL | MPI [4]: 62 | IC50 [5]: > 50 µg/mL | IC80 [5]: > 50 µg/mL | MPI [5]: 46 | IC50 [6]: 24.7 µg/mL | IC80 [6]: > 50 µg/mL | MPI [6]: 68 | IC50 [7]: 46.4 µg/mL | IC80 [7]: > 50 µg/mL | MPI [7]: 52 | IC50 [8]: 2.06 µg/mL | IC80 [8]: 11.4 µg/mL | MPI [8]: 100 | IC50 [9]: 5.14 µg/mL | IC80 [9]: 33.1 µg/mL | MPI [9]: 88 | IC50 [10]: 41.6 µg/mL | IC80 [10]: > 50 µg/mL | MPI [10]: 59

N49P19 (antibody)
neutralization IC50 [11]: 0.462 µg/mL | neutralization IC80 [11]: 2.04 µg/mL | neutralization MPI [11]: 100 | neutralization IC50 [12]: 0.978 µg/mL | neutralization IC80 [12]: 4.19 µg/mL | neutralization MPI [12]: 100

NIH 45-46 (antibody)
IC50 [13]: 0.07 µg/mL | IC80 [13]: 0.25 µg/mL | IC50 [14]: 0.01 µg/mL | IC80 [14]: 0.03 µg/mL | IC50 [15]: 0.003 µg/mL | IC80 [15]: 0.01 µg/mL | IC50 [11]: 0.07 µg/mL | IC80 [11]: 0.07 µg/mL | IC50 [16]: 0.07 µg/mL | IC80 [16]: 0.61 µg/mL

PG9 (antibody)
IC50 [17]: 0.052 µg/mL | IC80 [17]: 0.278 µg/mL | IC50 [18]: 0.025 µg/mL | IC80 [18]: 0.068 µg/mL | IC50 [19]: 0.038 µg/mL | IC80 [19]: 0.122 µg/mL | IC50 [20]: 1.69 µg/mL | IC80 [20]: 9 µg/mL | IC50 [21]: 0.614 µg/mL | IC80 [21]: 10.4 µg/mL | IC50 [22]: 0.892 µg/mL | IC80 [22]: 4.28 µg/mL | IC50 [23]: 0.101 µg/mL | IC80 [23]: 0.25 µg/mL | IC50 [24]: 0.029 µg/mL | IC80 [24]: 1.38 µg/mL | IC50 [25]: 0.176 µg/mL | IC80 [25]: 0.627 µg/mL | IC50 [26]: > 50 µg/mL | IC80 [26]: > 50 µg/mL | IC50 [27]: > 50 µg/mL | IC80 [27]: > 50 µg/mL | IC50 [28]: 0.095 µg/mL | IC80 [28]: 0.29 µg/mL | IC50 neutralization (TZM.bl) [12]: 0.034 µg/mL | IC80 neutralization (TZM.bl) [12]: 0.099 µg/mL | IC50 [29]: > 50 µg/mL | IC80 [29]: > 50 µg/mL

PG16 (antibody)
IC50 [17]: 3.63 µg/mL | IC80 [17]: 47.2 µg/mL | IC50 [18]: 0.005 µg/mL | IC80 [18]: 0.018 µg/mL | IC50 [19]: 0.044 µg/mL | IC80 [19]: 0.25 µg/mL | IC50 [20]: 1.54 µg/mL | IC80 [20]: 36.1 µg/mL | IC50 [21]: 0.261 µg/mL | IC80 [21]: 33.8 µg/mL | IC50 [22]: 0.07 µg/mL | IC80 [22]: 1.62 µg/mL | IC50 [23]: 0.039 µg/mL | IC80 [23]: 0.25 µg/mL | IC50 [24]: 0.065 µg/mL | IC80 [24]: 45.9 µg/mL | IC50 [25]: 0.653 µg/mL | IC80 [25]: > 50 µg/mL | IC50 [26]: > 50 µg/mL | IC80 [26]: > 50 µg/mL | IC50 [27]: > 50 µg/mL | IC80 [27]: > 50 µg/mL | IC50 [28]: 0.026 µg/mL | IC80 [28]: 1.25 µg/mL | IC50 neutralization (TZM.bl) [12]: 0.012 µg/mL | IC80 neutralization (TZM.bl) [12]: 0.238 µg/mL | IC50 [29]: > 50 µg/mL | IC80 [29]: > 50 µg/mL

PGDM1400 (antibody)
neutralization IC50 [13]: 0.01 µg/mL | neutralization IC80 [13]: 0.043 µg/mL | neutralization IC50 [14]: 0.003 µg/mL | neutralization IC80 [14]: 0.011 µg/mL | neutralization IC50 [15]: 0.028 µg/mL | neutralization IC80 [15]: 0.992 µg/mL | neutralization IC50 [16]: > 50 µg/mL | neutralization IC80 [16]: > 50 µg/mL | IC50 (Titer in TZM.bl cells) [12]: 0.006 µg/mL | IC80 (Titer in TZM.bl cells) [12]: 0.021 µg/mL

PGT128 (antibody)
neutralization IC50 [13]: > 50 µg/mL | neutralization IC80 [13]: > 50 µg/mL | neutralization IC50 [14]: > 50 µg/mL | neutralization IC80 [14]: > 50 µg/mL | neutralization IC50 [15]: > 50 µg/mL | neutralization IC80 [15]: > 50 µg/mL | neutralization IC50 [16]: 0.035 µg/mL | neutralization IC80 [16]: 0.312 µg/mL

PGT145 (antibody)
neutralization IC50 [13]: 33.6 µg/mL | neutralization IC80 [13]: > 50 µg/mL | neutralization IC50 [14]: 1.34 µg/mL | neutralization IC80 [14]: 18.5 µg/mL | neutralization IC50 [15]: < 0.001 µg/mL | neutralization IC80 [15]: 0.001 µg/mL | neutralization IC50 [16]: > 50 µg/mL | neutralization IC80 [16]: > 50 µg/mL

PGT151 (antibody)
neutralization IC50 [13]: > 50 µg/mL | neutralization IC80 [13]: > 50 µg/mL | neutralization IC50 [14]: > 50 µg/mL | neutralization IC80 [14]: > 50 µg/mL | neutralization IC50 [15]: 0.018 µg/mL | neutralization IC80 [15]: 0.119 µg/mL | neutralization IC50 [16]: 0.008 µg/mL | neutralization IC80 [16]: 0.032 µg/mL

Reference: US20240117018A1
